The labels stand for the following.
B1: IR485 (residues 1-485 of the insulin receptor) with enterokinase cleavage site and c-myc epitope tag (receptor)
chain: HLYPGEVCPGMDIRNNLTRLHELENCSVIEGHLQILLMFKTRPEDFRDLSFPKLIMITDYLLLFRVYGLESLKDLFPNLTVIRGSRLFFNYALVIFEMVHLKELGLYNLMNITRGSVRIEKNNELCYLATIDWSRILDSVEDNHIVLNKDDNEECGDICPGTAKGKTNCPATVINGQFVERCWTHSHCQKVCPTICKSHGCTAEGLCCHSECLGNCSQPDDPTKCVACRNFYLDGRCVETCPPPYYHFQDWRCVNFSFCQDLHHKCKNSRRQGCHQYVIHNNKCIPECPSGYTMNSSNLLCTPCLGPCPKVCHLLEGEKTIDSVTSAQELRGCTVINGSLIINIRGGNNLAAELEANLGLIEEISGYLKIRRSYALVSLSFFRKLRLIRGETLEIGNYSFYALDNQNLRQLWDWSKHNLTTTQGKLFFHYNPKLCLSEIHKMEEVSGTKGRQERNDIALKTNGDKASCENELLKFSYIRTSFDKISDDDDKEQKLISEEDLN
notes: also called IR485/myc; soluble IR485
B2: anti-insulin receptor monoclonal antibody 83-7 (whole antibody) (antibody, V domains shown)
VH: QVQLKESGPGLVAPSQSLSITCTVSGFPLTAYGVNWVRQPPGKGLEWLGMIWGDGNTDYNSALKSRLSISKDNSKSQVFLKMNSLQTDDTARYYCARDPYGSKPMDYWGQGTSVTVSS
VL: DIVMSQSPSSLVVSVGEKVTMSCKSSQSLLYSSNQKNFLAWYQQKPGQSPKLLIYWASTRESGVPDRFTGSGSGTDFTLTISSVKAEDLAVYYCQQYFRYRTFGGGTKLEIKR
notes: also called Mab 83-7

Series [1] concerns the molecule itself. Put plainly: gel filtration on Superdex 200 HR; monomeric on non-reduced SDS-PAGE.
Source text: Further purification was effected by gel filtration on Superdex 200 HR (Pharmacia, Sweden) in TBSA, monitored at 280 nm.
For series [2], the target named is B1. Put plainly: sandwich ELISA, biotinylated 83-7 as developing antibody. (An ELISA detects its analyte on a solid surface through an enzyme-linked reagent.)

Turning to B1, the binding result in series [1] was “binds”. B2: in series [2], the binding result was “binds”.
